Target: His-NifH^RS (Roseiflexus sp. RS-1 dinitrogenase reductase NifH) (Roseiflexus sp. RS-1)
Assay: not stated; molecular size and quaternary structure of the purified protein (Table 1); the method is in SI Appendix Figs. S8, S9, S14 and S15

stoichiometry N: 2
Substance: His-NifH^RS (Roseiflexus sp. RS-1 dinitrogenase reductase NifH) (natural protein)
